Laboratory results reported in patent publication US20210283212A1 (RA PHARMACEUTICALS, published 2021).
Positions of bridges follow the written chain, without caps; N, C: chain ends. Non-standard residues stand in square brackets, D forms with d. Primed or numbered codes have the meaning given here. No end group written: not given here. mXylyl(3) = bridging moiety between the two residues given in brackets; mXylyl″ = bridging moiety between the two marked residues; Trp(7-aza) = N[C@@H](Cc1c[nH]c2ncccc12)C(=O)O; mXylyl(4) = bridging moiety between residues; Phg = N[C@H](C(=O)O)c1ccccc1; NMeS = CN[C@@H](CO)C(=O)O; Nva = CCC[C@H](N)C(=O)O

Each binder was assayed against T1, human C5 protein (human, UniProt P01031 19-673; P01031 678-1676) (assay: cell-based or functional assay).

| Binder | Avg. IC50 (nM), human hemolysis assay [nM] |
| --- | --- |
| Ac-CVERFCDVYWEF-NH2 (linker 1-6 via mXylyl(4)) [R3048] | 19.3 |
| Ac-CVERFCWEF-NH2 (linker 1-6 via mXylyl(3)) [R3125] | > 100000 |
| Ac-CVERFCVYWEF-NH2 (linker 1-6 via mXylyl(3)) [R3124] | > 100000 |

Target: T1, human C5 protein
Assay: cell-based or functional assay
Remark: another data set of the same source

| Binder | Avg. IC50, human hemolysis assay [µM] |
| --- | --- |
| MCVERFCDVYWE-NH2 (linker 2-7 via mXylyl(4)) [R3043] | 0.934 |
| MCVERFC-NH2 (linker 2-7 via mXylyl(4)) [R3047] | > 100 |
| MCVERFCDVYW-NH2 (linker 2-7 via mXylyl(4)) [R3044] | > 50 |
| Ac-CVERFCDVYWEF-NH2 (linker 1-6 via mXylyl(4)) [R3048] | 0.0193 |
| Ac-CVERFCWEF-NH2 (linker 1-6 via mXylyl(3)) [R3125] | > 100 |
| Ac-CVERFCVYWEF-NH2 (linker 1-6 via mXylyl(3)) [R3124] | > 100 |
| MCVERFCDV-NH2 (linker 2-7 via mXylyl(4)) [R3046] | > 100 |
| Ac-[Nva]C[Phg]T[Trp(7-aza)]EY[NMeS]HC[Nva]P[Nva]-NH2 (linker 2-10 via mXylyl″) [R3008] | 0.097 |
| MCVERFCDVY-NH2 (linker 2-7 via mXylyl(4)) [R3045] | > 100 |

Target: T1, human C5 protein
Assay: cell-based or functional assay
Remark: another data set of the same source

| Binder | Avg. IC50 (nM), human hemolysis assay [nM] |
| --- | --- |
| MCVERFCDVYWE-NH2 (linker 2-7 via mXylyl(4)) [R3043] | 934 |
| MCVERFC-NH2 (linker 2-7 via mXylyl(4)) [R3047] | > 100000 |
| MCVERFCDVYW-NH2 (linker 2-7 via mXylyl(4)) [R3044] | > 50000 |
| MCVERFCDV-NH2 (linker 2-7 via mXylyl(4)) [R3046] | > 100000 |
| MCVERFCDVY-NH2 (linker 2-7 via mXylyl(4)) [R3045] | > 100000 |

Target: T1, human C5 protein
Assay: cell-based or functional assay
Remark: another data set of the same source

| Binder | Avg. IC50 (nM), human hemolysis assay [nM] |
| --- | --- |
| Ac-[Nva]C[Phg]T[Trp(7-aza)]EY[NMeS]HC[Nva]P[Nva]-NH2 (linker 2-10 via mXylyl″) [R3008] | 97 |

These binders were tested against primate C5 protein (primate, UniProt A0A2K5U1T1 19-673; A0A2K5U1T1 678-1676, Mature C5 is a disulfide-linked heterodimer of beta and alpha chains; it is glycosylated. The letters do not carry either feature.) (assay: cell-based or functional assay).
primate C5 protein, sequence (beta, as listed by the source limits assumed, chain 1 of 2): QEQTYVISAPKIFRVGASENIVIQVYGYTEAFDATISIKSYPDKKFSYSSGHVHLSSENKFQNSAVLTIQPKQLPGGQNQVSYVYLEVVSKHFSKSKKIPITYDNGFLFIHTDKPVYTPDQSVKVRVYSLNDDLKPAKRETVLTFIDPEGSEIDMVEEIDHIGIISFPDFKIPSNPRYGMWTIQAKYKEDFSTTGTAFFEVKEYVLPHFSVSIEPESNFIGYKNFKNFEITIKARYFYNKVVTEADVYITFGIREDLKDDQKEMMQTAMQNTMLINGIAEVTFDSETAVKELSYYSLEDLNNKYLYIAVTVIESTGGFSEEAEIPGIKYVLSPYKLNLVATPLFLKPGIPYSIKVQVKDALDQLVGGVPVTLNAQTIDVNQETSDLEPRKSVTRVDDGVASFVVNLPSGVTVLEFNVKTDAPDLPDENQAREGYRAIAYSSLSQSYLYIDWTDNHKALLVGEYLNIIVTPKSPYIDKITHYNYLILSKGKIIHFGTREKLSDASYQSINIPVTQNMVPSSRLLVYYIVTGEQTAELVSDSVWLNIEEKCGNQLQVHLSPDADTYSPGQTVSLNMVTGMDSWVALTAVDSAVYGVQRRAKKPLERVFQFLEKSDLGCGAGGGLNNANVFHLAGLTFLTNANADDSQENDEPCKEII
primate C5 protein, sequence (alpha, as listed by the source limits assumed, chain 2 of 2): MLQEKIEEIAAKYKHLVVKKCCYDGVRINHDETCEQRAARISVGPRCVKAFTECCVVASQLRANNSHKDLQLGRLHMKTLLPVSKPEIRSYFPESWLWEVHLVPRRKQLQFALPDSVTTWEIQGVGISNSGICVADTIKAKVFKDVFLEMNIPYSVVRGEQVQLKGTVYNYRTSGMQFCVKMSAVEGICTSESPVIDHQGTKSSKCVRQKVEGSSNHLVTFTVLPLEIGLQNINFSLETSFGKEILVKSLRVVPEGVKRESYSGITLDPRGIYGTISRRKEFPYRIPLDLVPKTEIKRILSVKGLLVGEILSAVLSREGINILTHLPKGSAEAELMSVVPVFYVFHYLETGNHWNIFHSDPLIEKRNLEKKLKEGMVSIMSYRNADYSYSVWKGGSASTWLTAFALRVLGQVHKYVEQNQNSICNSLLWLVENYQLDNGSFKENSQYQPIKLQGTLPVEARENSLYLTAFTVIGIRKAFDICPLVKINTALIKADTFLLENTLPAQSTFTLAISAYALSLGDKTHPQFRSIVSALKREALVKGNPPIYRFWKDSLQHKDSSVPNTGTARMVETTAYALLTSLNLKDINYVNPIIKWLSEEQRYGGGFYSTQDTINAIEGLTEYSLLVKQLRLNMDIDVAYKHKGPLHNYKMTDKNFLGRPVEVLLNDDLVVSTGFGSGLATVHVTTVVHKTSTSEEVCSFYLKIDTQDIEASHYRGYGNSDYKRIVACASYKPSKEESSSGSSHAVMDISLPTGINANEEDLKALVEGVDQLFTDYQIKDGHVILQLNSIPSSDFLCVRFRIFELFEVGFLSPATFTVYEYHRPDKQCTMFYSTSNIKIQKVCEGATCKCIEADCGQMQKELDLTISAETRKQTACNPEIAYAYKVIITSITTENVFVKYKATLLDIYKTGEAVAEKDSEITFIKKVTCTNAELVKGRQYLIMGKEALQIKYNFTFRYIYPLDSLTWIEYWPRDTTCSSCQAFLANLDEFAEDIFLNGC

| Binder | IC50, hemolysis assay with 1% cynomolgus monkey serum [µM] |
| --- | --- |
| KVERFDDGYWEYPGK ([cyclo(1,6)]Ac-K-V-E-R-F-D-(N-Me)D-Tbg-Y-azaTrp-E-Y-P-Chg-(Lys-C16)) [R3183] | 0.0042 |

Target: T1, human C5 protein
Assay: cell-based or functional assay
Remark: another data set of the same source

| Binder | IC50, formation of C5a (C5a EIA on human RBC hemolysis supernatant) [µM] | IC50, formation of the MAC (MAC EIA on human RBC hemolysis supernatant) [µM] | IC50, alternative pathway of complement activation (WIESLAB kit, serum samples) [µM] |
| --- | --- | --- | --- |
| VCYENGYWEYPGV (Ac-Nvl-C-Y-E-N-Tbg-Y-azaTrp-E-Y-P-Phg-Nvl-NH2) [R3002] | 0.0054 | – | – |
| Ac-[Nva]C[Phg]T[Trp(7-aza)]EY[NMeS]HC[Nva]P[Nva]-NH2 (linker 2-10 via mXylyl″) [R3008] | 0.0545 | 0.033 | – |
| KVERFDDGYWEYPGK ([cyclo(1,6)]Ac-K-V-E-R-F-D-(N-Me)D-Tbg-Y-azaTrp-E-Y-P-Chg-(Lys-C16)) [R3183] | – | 0.0069 | 0.0125 |
